Tested on: Escherichia coli TOP10
Assay: shrunken log2 fold change of peptide-encoding DNA abundance (4.5 h post-induction vs induction); higher = less antimicrobial activity (less host growth inhibition)
Details: time post-induction: 4.5 h; library: site-saturation at positions 5, 18, 19, 20
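Note: peptides expressed intracellularly from a pBAD plasmid library in pooled LB shake-flask culture, induced with 0.3% L-arabinose, DNA abundance read by NGS, three biological replicates, DESeq2 with apeglm shrinkage.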

Sequence | shrunken log2 fold change
RRIRYRPPRLPRPRPRPWGGPRP | 0.011
RRIRYRPPRLPRPRPRPWNWPRP | -0.252
RRIRYRPPRLPRPRPRPWPPPRP | 0.194
RRIRYRPPRLPRPRPRPWPVPRP | 0.0536
RRIRYRPPRLPRPRPRPWQAPRP | -0.0293
RRIRYRPPRLPRPRPRPWTCPRP | -0.362
RRIRYRPPRLPRPRPRPWTLPRP | -0.0151
RRIRYRPPRLPRPRPRPWTQPRP | -0.343
RRIRYRPPRLPRPRPRPWTWPRP | -0.106
RRIRYRPPRLPRPRPRPWVFPRP | -0.0309
RRIRYRPPRLPRPRPRPWWAPRP | -0.19
RRIRYRPPRLPRPRPRPWWLPRP | -0.0627
RRIRYRPPRLPRPRPRPWYCPRP | -1.12
RRIRYRPPRLPRPRPRPWYMPRP | -0.838
RRIRYRPPRLPRPRPRPYCSPRP | -0.00208
RRIRYRPPRLPRPRPRPYERPRP | -0.00804
RRIRYRPPRLPRPRPRPYFSPRP | -1.16
RRIRYRPPRLPRPRPRPYGMPRP | -0.438

Sequence | shrunken log2 fold change
RRIRYRPPRLPRPRPRPYGTPRP | -0.0957
RRIRYRPPRLPRPRPRPYKDPRP | -0.748
RRIRYRPPRLPRPRPRPYKEPRP | 0.043
RRIRYRPPRLPRPRPRPYKPPRP | -0.0475
RRIRYRPPRLPRPRPRPYKQPRP | -0.025
RRIRYRPPRLPRPRPRPYLKPRP | -0.478
RRIRYRPPRLPRPRPRPYLSPRP | -0.274
RRIRYRPPRLPRPRPRPYMFPRP | -0.651
RRIRYRPPRLPRPRPRPYPEPRP | -0.173
RRIRYRPPRLPRPRPRPYQWPRP | -0.257
RRIRYRPPRLPRPRPRPYVHPRP | -1.05
RRIRYRPPRLPRPRPRPYVNPRP | -0.361
RRIRYRPPRLPRPRPRPYVYPRP | -0.26
RRIRYRPPRLPRPRPRPYWFPRP | -0.142
RRIRYRPPRLPRPRPRPYWYPRP | -0.322
RRIRYRPPRLPRPRPRPYYKPRP | -0.534
RRIRYRPPRLPRPRPRPYYQPRP | -0.462
